Sequences and labels used below:
B1: Hairpin Ribozyme (parent)
chain: GUCCUCUUUCACGUGCGCGUGAAAGAGAGAAGUGAACCAGAGAAACACACGUUGUGGUAUAUUACCUGGUA

The data set covers variants of B1. Nature of the data set: self-cleavage, relative activity (ratio to wild type); higher = more cleavage; co-transcriptional.
As for A30G G54C, the self-cleavage came to 0.178.

A30C A43U: the self-cleavage came to 0.128.

A30G C37A: the self-cleavage amounted to 0.192. Then A30C U33G, with 0.0878; and A30C U33C, with 0.1. With G29C A64C, the self-cleavage was 0.133.

As to G29C A64G, the self-cleavage amounted to 0.124. On to G29U U62A, for which the self-cleavage came out at 0.103. Then G29U U62C, with 0.0779; and A28G A30C, with 0.0631.

In the case of A28G A30G, the self-cleavage turned out to be 0.218.

With G29C A43G, the self-cleavage was found to be 0.261. For A28C C66G the value was 0.197; for A28C C66U, 0.227. Then G29C G54A, with 0.1. Then G29C G54C, with 0.0908; and G29U A61C, with 0.14.

Take A28U U58A: the self-cleavage worked out at 0.36.

On to G29U U70C, for which the self-cleavage worked out at 0.127. For A28G U33C the value was 0.155. Then A28G C46A, with 0.199; and A30C G32A, with 0.145; and A30G A31G, with 0.157. For A28U G57C the value was 0.113.

In the case of G27U U70A, the self-cleavage was 0.172. A28G U70C: the self-cleavage came to 0.859.

As to A30C U60G, the self-cleavage came out at 0.181. For A30C A49C the value was 0.0983; for A30C A49U, 0.154. For A30C A49G the value was 0.123. As for A28G G32C, the self-cleavage stood at 0.119. Then A30G G51C, with 0.199. Then G29U A41C, with 0.217. Then A30G U60C, with 0.252; and A30G A41G, with 0.112. Take A28U A35U: the self-cleavage is 0.505.

Consider A30C A61C, for which the self-cleavage worked out at 0.251. For A28G A71U the value was 0.771; for A28G U55A, 0.208; for A28G U55C, 0.53. A28C G68C: the self-cleavage came to 0.309.

With G29C U53G, the self-cleavage amounted to 0.0421. For G29C U53A the value was 0.116. As for A30G C65G, the self-cleavage came to 0.204. Then A30G C65A, with 0.148; and G29C U62G, with 0.18; and G29C U62A, with 0.13. With G29C A59C, the self-cleavage is 0.205. As for G29C A59G, the self-cleavage worked out at 0.0639. Then A28G G42U, with 0.375. For G29C A35G the value was 0.178; for A28U A44U, 0.0894.

With G29C U70A, the self-cleavage came to 0.162. As for G29C U70G, the self-cleavage was 0.119.

Regarding G29U C50A, the self-cleavage is 0.113. Then G29U C50G, with 0.184; and G29C C37U, with 0.121. Then A28U A61G, with 0.0909. For A28G G29U the value was 0.0365. Consider G29A G40U, for which the self-cleavage amounted to 0.0938. Take A30G G57U: the self-cleavage was 0.0464. Then A30G G57A, with 0.0803; and G29C U63G, with 0.0807; and A28G U62A, with 0.287. For A28G U62G the value was 0.183; for A28C U55G, 0.217.

For the variant A28C U55C, the self-cleavage amounted to 0.216. With G29C G68U, the self-cleavage was 0.125. Regarding A28G G34A, the self-cleavage was found to be 1.25. For G29U A36C the value was 0.101.

Turning to G29U A36G, the self-cleavage is 0.275.

As for A30C U52C, the self-cleavage was found to be 0.133. For A30C U52A the value was 0.214; for A28C C38G, 0.194; for A28C C38U, 0.218. For A30C C66U the value was 0.169; for A30C U63C, 0.0293. Then A28U G32U, with 0.258. A28U U63C: the self-cleavage was 0.113. Then A28G U63C, with 0.138. For A28G U63G the value was 0.223; for A28G U63A, 0.141. For A28U A31U the value was 0.138; for G29A G42A, 0.139; for A28U A47C, 0.172.

For the variant G29U U33G, the self-cleavage is 0.0639. Then G29U G32U, with 0.164; and G29U G32A, with 0.169. A30C A47U: the self-cleavage amounted to 0.105. For A28C U63G the value was 0.176; for A28C U63C, 0.251; for A28C C48G, 0.128. Then G29C C48G, with 0.0534; and A28G C66U, with 0.654.

With A28G C66G, the self-cleavage was found to be 0.0858.

For G29A G32A, the self-cleavage is 0.181. For A28C U53G the value was 0.213; for A28C U53A, 0.39; for A30C A41G, 0. For G29C A44C the value was 0.126; for A28C C37U, 0.396; for G29A C50G, 0.187. For G29U C65U the value was 0.105; for G29A A61C, 0.163; for G29A A61G, 0.125.

Regarding A28C G42A, the self-cleavage came out at 0.29. For A28C G42C the value was 0.109. For G29C U52A the value was 0.129; for G29C U52G, 0.0183; for G29U G69C, 0.0911. For G29U G69A, the self-cleavage stood at 0.105. Regarding A30C A36U, the self-cleavage is 0.122. Then G29A G68A, with 0.125; and G29A G68C, with 0.143; and G29A G68U, with 0.306.

With G29U A49C, the self-cleavage was determined as 0.14. For G29U A49G, the self-cleavage came to 0.173. Then A28G C48G, with 0.0684; and A28G C48A, with 0.143; and G29U U52G, with 0.0467.

Regarding G29U A44G, the self-cleavage worked out at 0.142. Take G29U A45G: the self-cleavage turned out to be 0.136. Turning to G29C A61U, the self-cleavage amounted to 0.0566.

In the case of G29C A61G, the self-cleavage was 0.135.

Turning to A28U A59C, the self-cleavage came out at 0.0961. For A28U A59U the value was 0.185; for G29A U58G, 0.13; for G29A U58C, 0.202. For A28C U60A the value was 0.448; for G29U C37G, 0.0458; for A28U A49U, 0.111. For A28G G69A the value was 0.48; for G29C U55G, 0.0655; for A28G G51U, 1.14. Take G29C A36G: the self-cleavage was found to be 0.18. Then A30G A59U, with 0.305; and G29U U53C, with 0.197; and A28G A64C, with 0.165. On to A28G A64U, for which the self-cleavage was found to be 0.159. Then A28C U52A, with 0.492.

Consider G29C U58C, for which the self-cleavage came out at 0.159.

Take A28G U60A: the self-cleavage turned out to be 0.661. Regarding A28U G42A, the self-cleavage was found to be 0.167. Then G29U U55A, with 0.0925. For G29U U55G the value was 0.062; for G29U U55C, 0.0858. Then G29C U60C, with 0.164. As to G29C U60A, the self-cleavage worked out at 0.139. Then A28G A43G, with 0.158; and A28G A43U, with 0.123.

For the variant G29A G69U, the self-cleavage is 0.113. G29A G69C: the self-cleavage was 0.14. Then G29A A49C, with 0.179; and G29A U62G, with 0.21; and A30G G68U, with 0.169.

Consider A30C C48U, for which the self-cleavage was 0.17. For A28C A31U the value was 0.107; for A28C A31G, 0.333; for A28G A31U, 0.0204. For A28G A31G the value was 0.416; for G29C G56C, 0.0545. For G29C G56A the value was 0.0331; for G29U A43G, 0.134; for A30C U62C, 0.0331.

As to A30C C37A, the self-cleavage came to 0.0529. As to G29C C50U, the self-cleavage stood at 0.144. Then G29C C50G, with 0.0763.

For the origin of these results see the RNAGym collection of RNA variant scans (doi:10.7554/elife.80360).
